Experimental data: US20100169992A1 (U3 PHARMA, published 2010)

B1: anti-FGFR4 antibody 10F10 (antibody, V domains shown)
VH: EVQLKESGPGLVQPSQTLSLTCTVSGFSLTDYSVHWVRQPPGKGLEWMGVVWSSGSTAYNSALKSRLRITRDTSKSQAFLKMNSLQTEDTAIYYCTRPRYSSWFVYWGQGTLVTVSS
VL: DTVLTQSPALAVSLGQRVTISCRASKSVSTFIHWYQQKSGQQPKLLIYSASNTESGPSRFSGSGSGTDFTLTIDPVEADDIANYYCQQSNELPWTFGGGTKLELKR
notes: Rat monoclonal antibody from a hybridoma (rats immunised with FGFR4-ECD-GST)
B2: anti-FGFR4 antibody 9A5 (antibody, V domains shown)
VH: QVQLRESGPGLVQPSQTLSLTCTVSGFSLTFYHVSWVRQPPGKGLEWMGVIWTGGSTTYNSLLKSRLTISRDTSKSQVFLKMNSLQTEDTATYYCARGGGDRGYFAFWGPGTMVTVSS
VL: NTVMTQSPTSMFTSVGDRVTMSCKASQNVGINVGWYQQKTGQSPKRLIYWASNRDTGVPDRFTGSGSGTDFTLTISNMQAEDPAIYYCLQHNSYPWTFGGGTKLELKR
notes: Rat monoclonal antibody from a hybridoma

Biological target: T1, FGFR4 expressed on cells (L6-FGFR4 myoblasts; ZR-75-1 breast cancer cells) (UniProt P22455 22-802, limits assumed)
T1 construct: whole, on cells; also called L6-FGFR4 cells; FGFR4-transfected L6 myoblasts
T1 sequence (P22455 22-802 limits assumed): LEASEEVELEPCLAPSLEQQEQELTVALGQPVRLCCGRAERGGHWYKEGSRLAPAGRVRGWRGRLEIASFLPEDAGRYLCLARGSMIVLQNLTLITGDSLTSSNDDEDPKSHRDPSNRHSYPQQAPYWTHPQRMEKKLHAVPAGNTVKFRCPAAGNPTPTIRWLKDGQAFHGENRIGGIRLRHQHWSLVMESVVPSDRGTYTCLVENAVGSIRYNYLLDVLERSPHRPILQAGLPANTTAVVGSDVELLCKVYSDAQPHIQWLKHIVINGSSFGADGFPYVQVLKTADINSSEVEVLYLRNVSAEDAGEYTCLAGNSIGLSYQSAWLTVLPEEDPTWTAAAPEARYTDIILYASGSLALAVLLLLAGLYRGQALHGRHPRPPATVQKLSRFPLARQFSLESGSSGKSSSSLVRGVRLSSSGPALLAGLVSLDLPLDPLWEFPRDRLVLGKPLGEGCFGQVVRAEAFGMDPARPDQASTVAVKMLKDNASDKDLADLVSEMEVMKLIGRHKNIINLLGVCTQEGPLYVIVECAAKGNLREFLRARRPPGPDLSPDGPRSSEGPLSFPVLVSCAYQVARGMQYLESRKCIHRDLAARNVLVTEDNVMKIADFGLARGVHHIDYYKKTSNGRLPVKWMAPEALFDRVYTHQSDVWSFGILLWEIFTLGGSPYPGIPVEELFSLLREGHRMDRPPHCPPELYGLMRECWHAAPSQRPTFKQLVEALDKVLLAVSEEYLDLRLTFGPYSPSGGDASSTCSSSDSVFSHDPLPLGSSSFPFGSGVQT
Assay: FACS Scatchard on L6-FGFR4 cells, anti-rat-PE detection
Description: L6-FGFR4 cells were harvested by incubation with 10 mM EDTA in PBS and resuspended at 6 million cells per ml in FACS buffer (PBS pH 7.4, 3% FCS, 0.1% NaN₃). In a round-bottom microtiter plate, 100 μl of cell suspension were added to 100 μl of antibody solution containing antibodies 10F10 or 9A5 at concentrations between 31.25 and 0.01 μg/ml in FACS buffer. Antibody binding was allowed to proceed for 2 hours ice. Then, cells were washed twice with 250 μl FACS buffer per well, and resuspended in 200 μl of secondary antibody (anti-rat-PE; Jackson), diluted 1:50 in FACS buffer. After 45 minutes of incubation, cells were again washed twice in FACS buffer, then resuspended in […] of PBS for FACS analysis. Analysis was carried out on a Beckman-Coulter FACS. To determine the apparent affinity constant KDapp, mean fluorescence values were plotted against the ratio of mean fluorescence and the corresponding antibody contration ([M]). The calculated KDapp resulted from the inverse slope of the straight line (FIG. 2).

Binder	binding result
B1	binds
B2	binds
